Laboratory results taken from patent US20170319711A1.

Key:
[1] = biological target: Human 5T4 antigen on cells (human) (UniProt Q13641); experiment: flow cytometry, A431 cells
[2] = biological target: Human 5T4 antigen on cells (human) (UniProt Q13641); experiment: flow cytometry, PC3mm2 cells
[3] = biological target: Human 5T4 antigen on cells (human) (UniProt Q13641); experiment: flow cytometry, MDAMB468 cells

Chain of Human 5T4 antigen on cells (human) (Q13641 32-420 limits assumed): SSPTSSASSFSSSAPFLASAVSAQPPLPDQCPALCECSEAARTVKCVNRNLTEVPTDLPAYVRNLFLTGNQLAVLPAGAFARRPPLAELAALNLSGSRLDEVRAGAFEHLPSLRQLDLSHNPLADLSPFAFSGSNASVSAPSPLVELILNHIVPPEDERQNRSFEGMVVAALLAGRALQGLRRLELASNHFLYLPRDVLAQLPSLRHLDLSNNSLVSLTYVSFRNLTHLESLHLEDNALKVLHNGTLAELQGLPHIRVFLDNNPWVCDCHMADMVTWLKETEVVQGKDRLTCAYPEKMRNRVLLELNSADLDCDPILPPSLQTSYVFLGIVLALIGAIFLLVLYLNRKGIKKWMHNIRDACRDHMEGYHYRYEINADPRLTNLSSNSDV

Mean Fluorescent Intensity [1]: < 100 | Mean Fluorescent Intensity [2]: < 100 | Mean Fluorescent Intensity [3]: < 100
Substance: IgG control (antibody)
